# Results from the Immune Epitope Database (IEDB).
# Key:
# [1] = molecular target: HLA-A*02:03; test: IEDB peptide-MHC binding, purified MHC/competitive/radioactivity; filed as Kd, often an IC50 or EC50 that approximates it; ≥ and ≤ were set here for values at or beyond the usual limits of such assays
# [2] = molecular target: HLA-A*02:06; test: as above
# [3] = molecular target: HLA-A*02:02; test: as above
# [4] = molecular target: HLA-A*02:01; test: IEDB peptide-MHC binding, purified MHC/competitive/fluorescence; ≥ and ≤ were set here for values at or beyond the usual limits of such assays
# [5] = molecular target: HLA-A*03:01; test: IEDB peptide-MHC binding, purified MHC/direct/fluorescence; filed as Kd, often an IC50 or EC50 that approximates it; ≥ and ≤ were set here for values at or beyond the usual limits of such assays; conditions: source organism: Vibrio cholerae
# [6] = molecular target: HLA-A*68:01; test: IEDB peptide-MHC binding, purified MHC/competitive/radioactivity; filed as Kd, often an IC50 or EC50 that approximates it; ≥ and ≤ were set here for values at or beyond the usual limits of such assays; conditions: source organism: Lymphocytic choriomeningitis virus (strain Armstrong)
# [7] = molecular target: HLA-A*03:01; test: as above; conditions: source organism: Lymphocytic choriomeningitis virus (strain Armstrong)
# [8] = molecular target: HLA-A*31:01; test: as above; conditions: source organism: Lymphocytic choriomeningitis virus (strain Armstrong)
# [9] = molecular target: HLA-A*11:01; test: as above; conditions: source organism: Lymphocytic choriomeningitis virus (strain Armstrong)
# [10] = molecular target: HLA-A*33:01; test: as above; conditions: source organism: Lymphocytic choriomeningitis virus (strain Armstrong)
# [11] = source organism: Dengue virus 4 Philippines/H241/1956
# [12] = source organism: Dengue virus 2 Jamaica/1409/1983
# [13] = source organism: Vaccinia virus WR
# [14] = source organism: Lymphocytic choriomeningitis virus (strain Armstrong)
# [15] = source organism: SARS coronavirus Tor2
# [16] = source organism: Mycobacterium tuberculosis
# [17] = source organism: Zaire ebolavirus
# [18] = source organism: Mammarenavirus machupoense
Sequence,"Kd [1, 13] [nM]","Kd [2, 13] [nM]","Kd [3, 13] [nM]",also measured
GLFGKGGVV,,,,"Kd [1, 11]: 9.95 nM"
RVILAGPMPV,,,,"Kd [1, 12]: 7.76 nM; Kd [2, 12]: 31.9 nM"
KISVEKIKQT,8960,≥ 21000,1230,
DTCLLAISAV,93.1,106,2460,
RSLETDLRS,,,,IC50 ([4]; source organism: Vaccinia virus): ≥ 158000 nM
HLRASTTENA,37.9,≥ 69800,488,
IVSKCIVQSV,30.8,552,123,
KLALITVSGL,,,,"Kd [1, 11]: 7.32 nM"
IAGLKIEEI,6090,1970,7660,
LITLILSNKL,293,633,225,
ALMDLLMFS,,,,"Kd [1, 14]: 103 nM; Kd [2, 14]: 13.8 nM; Kd [3, 14]: 0.936 nM"
LMSFTILCL,,,,"Kd [1, 15]: 16.3 nM; Kd [2, 15]: 1.84 nM; Kd [3, 15]: 0.269 nM"
NTCKPTILAT,248,3920,460,
TQWSLFFFV,,,,"Kd [1, 15]: 540 nM; Kd [2, 15]: 0.812 nM; Kd [3, 15]: 79.6 nM"
AKAIITPIV,,,,IC50 ([4]; source organism: Vaccinia virus Copenhagen): ≥ 147000 nM
MSCDDVVFGI,,,,"Kd [1, 14]: 12100 nM; Kd [2, 14]: 249 nM; Kd [3, 14]: 1040 nM"
ALTDVEKRI,1490,14400,74.2,
FLAHLQWFA,,,,"Kd [1, 15]: 0.207 nM; Kd [2, 15]: 0.574 nM; Kd [3, 15]: 0.104 nM"
KLAGGVAVI,,,,"IC50 [4, 16]: 120 nM"

Sequence,"Kd [1, 13] [nM]","Kd [2, 13] [nM]","Kd [3, 13] [nM]",also measured
TVLTSVDIET,915,961,1720,
VIVENDNVI,19500,7230,15500,
LMIGNYFSGV,0.0932,0.132,0.126,
SIMSMMNIT,681,1760,4970,
KLQERLAKL,,,,"IC50 [4, 16]: 100 nM"
RLEELLPAV,,,,"IC50 [4, 17]: 1850 nM"
SLVITYCLVT,566,824,286,
IVPDADPPI,10700,274,5080,
MLFTKFFYL,,,,"Kd [1, 15]: 17.2 nM; Kd [2, 15]: 1.43 nM; Kd [3, 15]: 0.0849 nM"
ETKRNIARHL,12400,≥ 69800,≥ 50000,
KLASAIQKA,,,,"Kd [1, 12]: 17.9 nM"
FVVFLLVTL,,,,"Kd [1, 15]: 1640 nM; Kd [2, 15]: 37.7 nM; Kd [3, 15]: 217 nM"
NNLEEICQL,,,,"IC50 [4, 17]: ≥ 225000 nM"
NLAPHLLLIV,,,,"Kd [1, 15]: 1.07 nM; Kd [2, 15]: 125 nM; Kd [3, 15]: 5.1 nM"
STAEQLSKYV,1870,697,1060,
ILPDKIDGL,3.45,43.1,1.04,
SVNASKTINA,731,≥ 28800,17300,
SSWAVHWFS,,,,"Kd [1, 18]: ≥ 78100 nM; Kd [2, 18]: ≥ 46800 nM; Kd [3, 18]: 4640 nM"
RTWKVLSIMA,6050,5750,≥ 24000,

Sequence,"Kd [1, 13] [nM]","Kd [2, 13] [nM]","Kd [3, 13] [nM]",also measured
LTGNNTITT,5620,8680,5750,
VISTIANSNI,845,5160,282,
LTSVDIETAI,2150,3130,509,
STDQDTMLFA,4700,2020,646,
YALEPRKEI,7070,4110,3700,
LIFNVKSKLL,6690,≥ 28500,2390,
LSARHASGK,,,,Kd [5]: 127 nM
NTLISSDGA,3570,≥ 49400,7410,
DIMTSTRTI,78.6,≥ 21800,3450,
ELAAHQKKI,,,,Kd ([1]; source organism: Homo sapiens): 2650 nM
LLALGCYSQV,,,,Kd ([1]; source organism: Dengue virus 1 Brazil/97-11/1997): 12.7 nM
DTCGASINIT,≥ 70400,≥ 69800,≥ 23600,
LLPLTSLVIT,1320,1610,999,
LLLEWLAEV,,,,"Kd [1, 15]: 0.627 nM; Kd [2, 15]: 0.105 nM; Kd [3, 15]: 0.114 nM"
TAGNKVDVDI,3500,≥ 38000,11000,
AQFLYLYAL,,,,"Kd [1, 15]: 6.23 nM; Kd [2, 15]: 0.346 nM; Kd [3, 15]: 0.92 nM"
NTIAVITETI,56.3,784,50.2,
DTDIVNNFI,19400,15700,9320,
VVKWKRDEH,,,,Kd [6]: ≥ 77600 nM; Kd [7]: ≥ 37200 nM; Kd [8]: ≥ 34800 nM; Kd [9]: 187 nM; Kd [10]: ≥ 77700 nM
